Results: article PMC4267654
Read-outs that look alike come from different tables or passages of the source.

Legend:
[1] = target: T1, R.NgoAVII-B3 (C-terminal B3-like DNA-binding domain) (UniProt Q5F9M9 179-345); test: X-ray crystallography
T1 sequence: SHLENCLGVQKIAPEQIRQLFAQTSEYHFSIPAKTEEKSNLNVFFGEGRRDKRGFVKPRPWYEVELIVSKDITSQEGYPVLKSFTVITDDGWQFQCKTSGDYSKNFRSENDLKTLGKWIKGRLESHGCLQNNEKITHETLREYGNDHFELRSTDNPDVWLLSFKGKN

[2] = target: T1, R.NgoAVII-B3 (C-terminal B3-like …); test: X-ray crystallography; remark: listed apart in the source

B1: DNA-1 cognate oligoduplex (dsDNA)
DNA 1: GGGATTGCCGCTTAGG
DNA 2: CCCTAAGCGGCAATCC
binding result [1]: binds

B2: DNA-2 oligoduplex (DNA-1 without terminal C1 and G32) (dsDNA)
DNA 1: GGGATTGCCGCTTAG
DNA 2: CCTAAGCGGCAATCC
binding result [2]: binds
